Results as given in patent US20080159996.

Assays:
Assay in all cases: cell_activity
[1] = test system: ZFN 8196z-FokI wt (ZFN215 and ZFN201 pair member) (synthetic)
[2] = test system: ZFN 8196z-FokI E490K/I538K (ZFN224 pair member) (synthetic)
[3] = test system: ZFN 8267-FokI wt (ZFN215 pair member) (synthetic); conditions: pair ZFN215 with 8196z, CD4+ T-cells, MOI 100, Cel-1 assay; 31.2% in PBMCs
[4] = test system: ZFN 8266-FokI wt (ZFN201 pair member) (synthetic); conditions: pair ZFN201 with 8196z, PM1 cells, plasmid electroporation
[5] = test system: ZFN 8266-FokI Q486E/I499L (ZFN224 pair member) (synthetic)
[6] = pair ZFN224, CD4 T cells, conditions giving 35.6% CCR5 modification, Surveyor nuclease

## AAACTGCAAAAG (double strand) [CCR5 168 half-site]
[1]; pair ZFN201 with 8266, PM1 cells, plasmid electroporation
  activity (% CCR5 alleles modified): 2.4
[1]; pair ZFN215 with 8267, CD4+ T-cells, MOI 100, Cel-1 assay, 31.2% in PBMCs
  activity (% CCR5 alleles modified): 32.3
[2]; pair ZFN224, CD4+ T-cells, MOI 100, Cel-1 assay, 48.4% in Example 4
  activity (% CCR5 alleles modified): 14.9

## GATGAGGATGAC (double strand) [CCR5 r162 half-site]
[3]
  activity (% CCR5 alleles modified): 32.3
[4]
  activity (% CCR5 alleles modified): 2.4
[5]; pair ZFN224 with 8196z, CD4+ T-cells, MOI 100, Cel-1, Examples 14 and 17 state 8266 in ZFN224 but Example 1 states 8267
  activity (% CCR5 alleles modified): 14.9

## CCR2 off-target site
[5]; [6]
  activity (% CCR2 alleles modified): 4.1
[2]; [6]
  activity (% CCR2 alleles modified): 4.1
